The data set can be described thus: yeast display, Sf9 membrane polyspecificity reagent, FACS + sequencing; frameworks hold sequencing errors. The method, boiled down: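 A synthetic nanobody library was expressed on Saccharomyces cerevisiae BJ5465 by galactose induction for 36–48 hours. The library was stained for 1 hour at 4 °C with 10% biotinylated, detergent-solubilized Sf9 membrane reagent and enriched with streptavidin microbeads before FACS. Low and high (top ~1%) gates were set on anti-HA fluorescence for expression and streptavidin fluorescence for reagent binding, and each polyreactivity label reflects the gate of origin.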
As for “QLQLVESGGGLVQAGGSLRLSCAASGFTFGVYAKGWYRQAPGKEREFVAAISWRGGSTYYADSVKGRFTISRDNAKITVYLQMNSLKPEDTAVYYCAADVLERGYGHYNYWGQGTQVTVSS”, the “polyreactivity (PSR sort gate)” value is “high polyreactivity”.
In the case of “QLQLVESGGGLVQAGGSLRLSCAASGGIFGYYTMGSYRQAPGKEREFVAAITSRGGSTYYADSVKGRFTISRDTAKNTVYLQMNSLKPEDTAVYYCAARRQRDRYGYWGQGTQVTVSS” it was “high polyreactivity”.
Regarding “QLQLVESGGGLVQAGGSLRLSCAASGHIFDANVMGWSRQAPGKERELVAAISSGGRTKYADSVKGRFTISRDNAKNTVYLQMNSLKPEDTAVYYCAKKHFPLYDYWGQGTQVTVSS”, the “polyreactivity (PSR sort gate)” value was “low polyreactivity”.
To “QLQLVESGGGLVQAGGSLRLSCAASGLIFRYYTMGWYRQAPGKERELVATITRGDSTYYADSVKGRFTISRDNAKNTVYLQMNSLKPEDTAVYFCAAAGWSRVGYWLKYDYWGQGTQVTVSS” belongs “high polyreactivity”; to “QLQLVESGGGLVQAGGSLRLSCAASGLIFTTNAMGWYRQAPGKEREFVAAISPSGGSTYYADSVKGRFTISRDNAKNTVYLQMKSLKPEDTAVYYCAKRPYVGYDWGQGTQVTVSS”, “high polyreactivity”.
To “QLQLVESGGGLVQAGGSLRLSCAASGLTFYSYPMGWYRQARGKERELVATIRSSGGSSYYADSVKGRFTISRDNAKNTVYLQMNSLKPEDTAVYYCAARWGPYAFTYVRTYDYWGHGTQVTVSS” belongs “low polyreactivity”.
To “QLQLVESGGGLVQAGGSLRLSCAASGNTFYGYTMGWYRQAPGTERELVAVISSSGGRTNYADSVKGRFTISRDNAKNTVYLQMNSLKPEDTAVYYCAARSSRLPHIYGYWGQGTQVTVSS” belongs “low polyreactivity”; to “QLQLVESGGGLVQAGGSLRLSCAASGRIFGKNDMRSYRQAPGKERELVAAITTSGGSTDYADSVKGRFTISRDKAKNTVYLQMNSLKPEDTAVYYCNAAFQNKAYIRKYKYDYWGQGTQVTVSS”, “low polyreactivity”.
“QLQLVESGGGLVQAGGSLRLSCAASGRIFYQTAMGWYRQAPGKERELVADIASGGSTYYADSVKGRFSISRDNAKNTVHLQMNSLKREDTAVDYCATAVLYGDGWYYYWGQGTQVTVSS”: the “polyreactivity (PSR sort gate)” value is recorded as “low polyreactivity”.
With “QLQLVESGGGLVQAGGSLRLSCAASGRILRYYTMGWYRQAPGKERELVAAISRSGGGTYYADSVKGRFTISRDNANNTVDIEMYSLIPEDTSVYYCAAYKPSPYSSDYDYWGEGTQVTVSS”, the “polyreactivity (PSR sort gate)” value was “high polyreactivity”.
To “QLQLVESGGGLVQAGGSLRLSCAASGRTFAIYAMGWYRQAPGKERELVAAIRKRGSITYYADSVKGRFTISRDNAKNTVYLQMNSLKPDATAVYYCAVDYWGQGTQVTVSS” belongs “high polyreactivity”; to “QLQLVESGGGLVQAGGSLRLSCAASGRTFDDYAMGWYRQAPGKERELVAAISGSAGSTYYADSVKGRFTISRDNAKNTVYLQMNSLKPEDTAVYYCARGYGTYPLYYQYLAYYYWGQGTQVTVSS”, “low polyreactivity”.
To “QLQLVESGGGLVQAGGSLRLSCAASGRTFQGYAMGWYRQAPGKERELVAAISRSGGRTYYADSVKGRFTISRDNAKYTVYLQMNSLKPEDTAVYYCCTEAFRDYGYWGQGTQVTVSS” belongs “high polyreactivity”; to “QLQLVESGGGLVQAGGSLRLSCAASGRTFRLNGMGWYRQAPGKERELVAAITWSGGRTYYADSVKGRFTISRDNAKNTVYLQMNSLNPEDTAVYYCAAGKSSYGKPKYYYWGQGTQVTVSS”, “high polyreactivity”.
In the case of “QLQLVESGGGLVQAGGSLRLSCAASGSIFADYAMGWYRQAPGKEREFVAAITRSGTSTYYADSVKGRFTISRDNAKNTVYFQMNSLKPEDTAGYYCAKTEVLLYLYTLDYWGQGTQVTVSS” it was “low polyreactivity”.
In the case of “QLQLVESGGGLVQAGGSLRLSCAASGSIFFGNVMGWYRQAPGKERELVAAINTDGRTYYADSVKGRFTISRDNAKNTVYLQMNSLKPEDTAVYYCAARKGYRYYYWGQGTQVTVSS”, the “polyreactivity (PSR sort gate)” value is “high polyreactivity”.
In the case of “QLQLVESGGGLVQAGGSLRLSCAASGSIFNDTAMGSYRQAPGKDRELVAAISWNGGSTYYADSVKGRFTISRDNAKNTVYLQMNSLKPQDTAVYYCAVYARYWYLLHYRYGYWGQGTQVTVSS” it was “low polyreactivity”.
“QLQLVESGGGLVQAGGSLRLSCAASGSIFRGYAMGWYRQAPGKERELVAAISWSGGRTYYADSVKGRFTISRDYAKNTVYLQMNSLKPEDTSVFYCNAASLRYSYTLFDCWGQGTQVTVSS”: the “polyreactivity (PSR sort gate)” value is “high polyreactivity”.
In the case of “QLQLVESGGGLVQAGGSLRLSCAASGSIFRINAMGWYRQEPGKESELVSAISTRSGRTYYADSVKVRFTISRDNSKNTVYLQMNSLKPEDTAVYYCARYRTQASGYGGYDYWGQGTQVTVSS” it was “high polyreactivity”; in that of “QLQLVESGGGLVQAGGSLRLSCAASGSIFSRYAMGWYIQAPGKEMELVAGITRGGSTNYADSVKGRFTLSRDNAKNTVYLHMNSLKPEDTAVYYCAKASRRFLTLGYDYWGQGTQVTVSS”, “high polyreactivity”.
For the sequence “QLQLVESGGGLVQAGGSLRLSCAASGSLFYVYAMGWYRAATGKERELVAAISDDGDTYYADSVKGRFTISRDHEKNTVYLQMNSLKPEDTEVYFCAAEGGANEENSSPEYDYWGLGTQVTVSS”, the “polyreactivity (PSR sort gate)” value is on record as “low polyreactivity”.
In the case of “QLQLVESGGGLVQAGGSLRLSCAASGSTFDYNAKGWYRQAPGKERELVAAITSTGGNTYYADSVKGRFTIARDNAKNSVYIQMNSLKQEDTAVYYCNKDVARYPYGKCDYWGQGTQVTVSS” it was “low polyreactivity”; in that of “QLQLVESGGGLVQAGGSLRLSCAASGSTFYTNAMGWYRQAPGKERELVAVITSRGGGTYYADSVKGRFTISRDNAKNTVYLQMNSLKPEDTAVYYCAAYPLVSWGRHGTKGDYWGQGTQVTVSS”, “low polyreactivity”.
In the case of “QLQLVESGGGLVQAGGSLRLSCAASVRIFDVYAMGWYRQAPGKERELVAAITWDGGSTYYADSVKGRFTISRDNAKNTVYLQMNSLKPEDTAVYYCAAEPVYTQRKGYDYWGHGTQVTVSS” it was “low polyreactivity”.
In the case of “QLQLVESGGGLVQAGGSLRLSCADSASIFTCYAMGWDRQAPGKESELVARINVSAGITYYADSVMGRFTISRDNAKNPVYLQMNSLNPEDTAVYYCAATGLRRPKHNYWGQGPQVTVSS” it was “low polyreactivity”; in that of “QLQLVESGGGLVQAGGSLRLSCAPSGRIFAPYAMGWYIPAPVKERELVAAIRLSGGSTYYADSVKGRFTISRDNAKNTVYLKMNSLKPEDTEVYYCAARYPGVARFYYWGQATQVTVSS”, “high polyreactivity”; in that of “QLQLVESGGGLVQAGGSLRLTCAASGSIFNDNAMGWYRPAPVKERELVAPINSDGSTYYADSVKGRFTISRDNAKNTVYLQMNSLKPEDTAVYYCNADTLLDNFTWDADGYDYWGQGTHVTVSS”, “low polyreactivity”.
For the sequence “QLQLVESGGRIVQAGGSLRLSCAASGITIRYYAMGWYRQAPGKERELVAAITRSGSTTYADSVKGRFTISRDNAKNTVYFQMNSLKPEDTAVYYCAVDFYYLTGGVDYWGQGTQVTVSS”, the “polyreactivity (PSR sort gate)” value is given as “low polyreactivity”.
In the case of “QLQLVESGGVLVQAGGSLRLSCAASGLTFAYYAMGSYRQAPGKERELVAAISWNGGRTYYAYSVKGRFTISRDNAKNTVYLQMNSLKPEDTAVYYCATRFYRPRDGLYDYWGQGTQVTVSS” it was “high polyreactivity”.
In the case of “QLQLVESGPGLVQAGGSLRLSCAPSGSTFNRNAMGCYSQAPGKERELVAVISSGGSTYYADSVKGRFTISRDIAKNTVYLQMNSLKPEDTAVYYCAAGDPQKEDYWGQGTQVTVSS” it was “low polyreactivity”.
For the sequence “QLQLVESLGGLFQAGGILRLSCAASGRTLRGYGNGWYRQAPAKEREFVAAISTRGGRTYYADSVKGRFTISRDNAKNTVYLQMKILKPEDTAVYYCAAAYEPGDYDSWGQGTQVTVSS”, the “polyreactivity (PSR sort gate)” value is recorded as “low polyreactivity”.
To “QLQLVESVGGLVHAGGSLRLSCAASGSTFVLYAMGWYRQAPGKERELVATITTSGARTHYADSVKGRFTISRDNAKNTVYLQMNRLKPEDTAVYNCAAESYWTGDDYWGQGTQVTVSS” belongs “low polyreactivity”.
To “QLQLVESVGVLVQAGGSLRLSCAASGFIFDGYAMGWYRQAPGKERELVAAIDSGGDRTYYADSVKGRFTISRDNAKNTVYLQMNSLKPEDTAVYYCARTFRTYAPRPYQGDYWGQGTQVTVSS” belongs “low polyreactivity”.
To “QLQLVETGGGLVQAGASLRLSCAASGSIFVPYAMGWYIQAPGKERELVAAISRGGDTNYADSVKGRFTISRDNAKNTVYLQMISLKPEDTAVYYCNRARHLYSRWHGGYYYWGQGTQVNVSS” belongs “low polyreactivity”; to “QLQLVKSWGGLVQAGGSLRLSSAASGLTFELYDMGWYRQAPGKERELVAAIDWSATRTYYADSVKGRFTISRDNAKNTVYLQMNSLKPEDTEVYYCNAEAVYEYWIYDYWGQGTQVTVSS”, “high polyreactivity”.
With “QRQLVESGGGLVQAGGSLRLSCAASGFIFDSNAMGRYRQEPGKERELVAAFAARGGSTYYADSVKGRFTISRDYAKHTLYLQMNSLKPEETAVYNCNAVYIVGGYWGQGTQVTVSS”, the “polyreactivity (PSR sort gate)” value is “high polyreactivity”.
To “QRQLVESGGGLVQAGGSLRLSCAASGIIFQGYAMGWYRQAPGKERELVAAISHHADSTYADSVKGRFTISRDNAKNPVYLQMNSLKPEDTAVYYCNADTPVRSDYWGQGTQVTVSS” belongs “low polyreactivity”.
In the case of “QVEHVESGGGLVQAGGILRLSCAASGSTFYGYAMGWYRQARGKERELVAAITSSGGSTYYADSVKGRFTISRDNAKNSVYLQMNSLKPEDTADYYCNAKRAPWGTLYNYWGQGSQVTVSS” it was “high polyreactivity”; in that of “QVEIVESGGGLVQAGGSLRLSCAASGSIFRWNAMGWYRQAPGKERELVAAISKRGTNTYYADSVKCRFTISRDNAKNTVYLQMNSLKPEDTAVYYCNAQGHRQNGLGDYWGQGTQVTVSS”, “high polyreactivity”; in that of “QVELQVSGGGLVRAGGSLRLSCAASGNIFDADIMGWYRQAPGKERELVASITGGGSTSYAESAKGRFTISRDNAKNAVYLQMNSLKPEDTAVYYCNAYFIYEGGWYYKAQYDYWGQGTQVTVSS”, “low polyreactivity”.
To “QVELVESGGGLVQAGGSLRLICAASGFTYTWNAMGWYRQAPGKERELVAGITRGGSTNYADSVKGRFTISRDNAKNTVYLQINSLKPEDTAVYYCNVSFYFHHAGYDFWGQGTQVTVSS” belongs “low polyreactivity”.

The values are drawn from the nanobody polyreactivity screen of Harvey et al. (2022).
